Data set [1] addresses STC2(C120A), human stanniocalcin 2 with cysteine 120 replaced by alanine, C-terminally myc-his-tagged.
Data set [2] has as its target recombinant human stanniocalcin 1, C-terminally myc-his-tagged.
Data set [3] addresses recombinant human stanniocalcin 2, C-terminally myc-his-tagged.
For data set [4], the target named is untagged human STC2 (transgene-derived STC2 of transgenic mice; endogenous STC2 of 293T cells).

The results in this text go back to patent US20200261490.

B1: murine PAPP-A2 (protein)
chain: QNGGGASLRRVETFNSQGGLPVLYFTGKRERLLLRPEVLAEIPREAFTVEAWVRPEGGQSNPAIIAGVFDNCSHTVNDKGWALGIRSGKDKGWRDARFFFSLRTDRMKKATIVTGHSRYQPGMWTHVAATYDGQHTALYVDGTRVASSRDQFGPLNSPFMASCRSLILGGDSSEDGHYFRGYLGTLVIWSTALSQTHLQHSPLHPSAADELTTLILTATFDPLMEQWAPFRDDLYPRLEVLQDSESQPEILSPLQPPPCGQTACDNVELISQYNKHGPLRREKVIRYQVVNIYDDEGLHPIVSDHQIRRQHEALNQAFSRYNISWQLSVHRVHNSTLRHRVVLVNCEPSKIGNDHCDPECEHPLTGFDGGDCRLQGRCYSWNRRDGLCHVECNNMLNDFDDGDCCDPEVTDVRKTCFDPDSPKRAYMSVKELKEALQLNSTHFLNVYFASSVREDLAGSATWPWDKEALSHLGGVVLNPTYYGMLGHTNIMIHEVGHVLGLYHVFKGVSERESCDDPCRETVPSMETGDLCADTAPTPKSKLCRDPEPANDTCGFTLFPGAPFNNYMSYTDDECTDNFTPNQVARMHCYLDLVYQQWSESQKPTPIPIPPMVIGQTHKSLTIHWLPPISGVVYDRAPDSMCSACTEDGTFRQYVYKASSGRVCDSSGYWTPEEAVGPPDVDQPCEPSLQAWSPELHLNHMNMTVPCPAEGCSLELLFQYPVQADTLTLWVTYLSMNSSKAFFDIEILLEHKKSMHLGPLNTFCDIPLTIKLHMDEKVMGAKVYTFDERMEIDAALLTSRPNSSLCSGCKPMSYQVLREPPFSSGLPMVVTHPHRKFTDTEVIPGQMYQYQVQAEAVGELGEASPPLSHIHGGPYCGDGKVERSIGEMCDDGDLLNGDGCSRACELEEGFNCAGEPSLCYRYEGDGVCEDFEKESIITDCGLHTPEGYLDQWASQAYSYHEDKEKCPVSLVTGEPHSMICTSWHPDSSPYHSFPGWFPCVFSLKKDQDAGSEQAKDSLQKDNEIWLEVCFNRPGVAVAIYIFLASDGVTPGEHQQATVTLYLIDVSGSNHSLGTYGLSCQQNPLVINVSHHVNVYPQHTSSMLLNFSSPLVGISAVALRTSSQTSSSAPSNCIPEQNYEGKSCAQRPCGEQGRCAPLLLDHTDMVNCTSSSPGHMECAITCQRGYVLQTSSGQYLRNMQKEILLTCSSGHWDKDVICKRLDCGVPDSSLVNYANFSCLEGTDFLKQCSISCVPPAKLQGLNPWLTCLEDGLWSLPEVYCKLECEAPPVIPNANLLLPHFLEGNHDVGTICKYECKPGYYVKETSGSQGKNKFLKIQCLDDGSWEQGSCVPVVCEPPPPVFEGMYECTDGFKLDSQCVLNCNQETEGIPILCTKEGLWTQEFKLCENLQGECPPPTSELNSVEYKCGQGYGIGAVCSPSCVIPPSDPVILPENVTTDTLEHWMEPVKVQSIVCTGRRQWHPDPSLVHCIQSCEPFQADGWCDTINNRAYCNYDGGDCCSSTLSSKKVIPFAADCDLDECTCRDPKAEENQ
For B1, the “proteolytic activity of murine PAPP-A2 towards radiolabeled IGFBP-5” value is “Murine PAPP-A and PAPP-A2 are inhibited by STC1 and STC2, but not STC2(C120A)” in data set [1]; “Murine PAPP-A and PAPP-A2 are inhibited by STC1 and STC2, but not STC2(C120A)” in data set [2]; “Murine PAPP-A and PAPP-A2 are inhibited by STC1 and STC2, but not STC2(C120A)” in data set [3].

B2: murine PAPP-A (protein)
chain: RGAEEPSPPSRALYFSGRGEQLRLRADLELPRDAFTLQVWLRAEGGQKSPAVITGLYDKCSYTSRDRGWVMGIHTTSDQGNRDPRYFFSLKTDRARKVTTIDAHRSYLPGQWVHLAATYDGRLMKLYMNGAQVATSAEQVGGIFSPLTQKCKVLMLGGSALNHNFRGHIEHFSLWKVARTQREIVSDMETRGLHTPLPQLLLQENWDNVKRTWSPMKDGNSPQVEFSNAHGFLLDTNLEPPLCGQTLCDNTEVISSYNQLPSFRQPKVVRYRVVNIYDDHHENPTVSWQQIDFQHQQLAEAFQHYNISWELEVLNINSSSLRHRLILANCDISKIGDEKCDPECNHTLTGHDGGDCRQLRYPAFMKKQQNGVCDMDCNYERFNFDGGECCDPDITDVTKTCFDPDSPHRAYLDVNELKNILRLDGSTHLNIFFANSSEEELAGVATWPWDKEALMHLGGIVLNPSFYGIPGHTHTMIHEIGHSLGLYHIFRGISEIQSCSDPCMETEPSFETGDLCNDTNPAPKHKFCGDPGPGNDTCGFHGFFNTPYNNFMSYADDDCTDSFTPNQVSRMHCYLDLVYQSWQPSRKPAPVALAPQVVGHTMDSVMLEWFPPIDGHFFERELGSACDLCLEGRILVQYAFNASSPMPCGPSGHWSPREAEGHPDVEQPCKSSVRTWSPNSAVNPHTVPPACPEPQGCYLELEFRYPLVPESLTIWVTFVSSDWDSSGAVNDIKLLTISGKNISLGPQNVFCDIPLTIRLRDVGEEVYGIQIYTLDEHLEIDAAMLTSTVDSPLCLQCKPLQYKVLRDPPLLEDVASLLHLNRRFMDTDLKLGSVYQYRIITISGNEESEPSPAAIYTHGSGYCGDGVIQKDQGEECDDMNKVNGDGCSLFCKQEVSFNCIDEPSRCYFHDGDGMCEEFEQKTSIKDCGVYTPQGFLDQWASNASVSHQDQQCPGWVVIGQPAASQVCRTKVIDLSEGISQHAWYPCTITYPYYHLPQTTFWLQTYFSQPMVAAAVIIHLVTDGTYYGDQKQETISVQLLDTKDQSHDLGLHVLSCRNNPLIIPVVHDLSQPFYHSQAVHVSFSSPLVAISGVALRSFDNFDPVTLSSCQRGETYSPAEQSCVHFACQAADCPELAVGNASLNCSSNHHYHGAQCTVSCQTGYVLQIQRDDELIKSQVGPSITVTCTEGKWNKQVACEPVDCGIPDHHHVYAASFSCPEGTTFGRRCSFQCRHPAQLKGNNSFLTCMEDGLWSFPEALCELMCLAPPPVPNADLQTARCRENKHKVGSFCKYKCKPGYHVPGSSRKSKKRAFKTQCTQDGSWQEGTCVPVTCDPPPPKFHGLYQCTNGFQFNSECRIKCEDSDASQGRGSNIIHCRKDGTWSGSFHVCREMQGQCSAPNQLNSNLKLQCPDGYAIGSECAISCLDHNSESIILPVNLTVRDIPHWMNPTRVQRIVCTAGLQWYPHPALIHCVKGCEPFMGDNYCDAINNRAFCNYDGGDCCTSTVKTKKVTPFPMSCDLQNDCACRDPEAQEHNRKDLRGYSHG
With B2, the “proteolytic activity of murine PAPP-A towards radiolabeled IGFBP-4” value was “Murine PAPP-A and PAPP-A2 are inhibited by STC1 and STC2, but not STC2(C120A)” in data set [1]; “Murine PAPP-A and PAPP-A2 are inhibited by STC1 and STC2, but not STC2(C120A)” in data set [2]; “Murine PAPP-A and PAPP-A2 are inhibited by STC1 and STC2, but not STC2(C120A)” in data set [3]. The “proteolytic activity towards IGFBP-4 in conditioned media of STC2 transgenic mouse embryonic fibroblasts” value in data set [4] is given as “conditioned media from MEFs derived from STC2 transgenic mice showed a marked reduction in PAPP-A activity”.
